Reference: patent publication US7485456 (YEDA RESEARCH AND DEVELOPMENT, dated 2009)

B1: intracellular domain of the CD40 receptor (receptor, UniProt P25942 216-277, looked up)
chain: KKVAKKPTNKAPHPKQEPQEINFPDDLPGSNTAAPVQETLHGCQPVTQEDGKESRISVQERQ
notes: domain: intracellular domain; Two-hybrid construct
B2: Lymphotoxin beta receptor cDNA clones picked from the human B-cell library (two-hybrid prey, GAL4 activation domain fusion) (receptor, UniProt P36941 249-435, looked up, not shown: large carriers)
chain: KSHPSLCRKLGSLLKRRPQGEGPNPVAGSWEPPKAHPYFPDLVQPLLPISGDVSPVSTGLPAAPVLEAGVPQQQSPLDLTREPQLEPGEQSQVAHGTNGIHVTGGSMTITGNIYIYNGPVLGGPPGPGDLPATPEPPYPIPEEGDPGPPGLSTPHQEDGKAWHLAETEHCGATPSNRGPRNQFITHD
B3: TRAF3 (other, UniProt Q13114 1-568, looked up)
chain: MESSKKMDSPGALQTNPPLKLHTDRSAGTPVFVPEQGGYKEKFVKTVEDKYKCEKCHLVLCSPKQTECGHRFCESCMAALLSSSSPKCTACQESIVKDKVFKDNCCKREILALQIYCRNESRGCAEQLMLGHLLVHLKNDCHFEELPCVRPDCKEKVLRKDLRDHVEKACKYREATCSHCKSQVPMIALQKHEDTDCPCVVVSCPHKCSVQTLLRSELSAHLSECVNAPSTCSFKRYGCVFQGTNQQIKAHEASSAVQHVNLLKEWSNSLEKKVSLLQNESVEKNKSIQSLHNQICSFEIEIERQKEMLRNNESKILHLQRVIDSQAEKLKELDKEIRPFRQNWEEADSMKSSVESLQNRVTELESVDKSAGQVARNTGLLESQLSRHDQMLSVHDIRLADMDLRFQVLETASYNGVLIWKIRDYKRRKQEAVMGKTLSLYSQPFYTGYFGYKMCARVYLNGDGMGKGTHLSLFFVIMRGEYDALLPWPFKQKVTLMLMDQGSSRRHLGDAFKPDPNSSSFKKPTGEMNIASGCPVFVAQTVLENGTYIKDDTIFIKVIVDTSDLPDP
notes: Two-hybrid construct
B4: RIP (other, UniProt Q13546 1-671, looked up)
chain: MQPDMSLNVIKMKSSDFLESAELDSGGFGKVSLCFHRTQGLMIMKTVYKGPNCIEHNEALLEEAKMMNRLRHSRVVKLLGVIIEEGKYSLVMEYMEKGNLMHVLKAEMSTPLSVKGRIILEIIEGMCYLHGKGVIHKDLKPENILVDNDFHIKIADLGLASFKMWSKLNNEEHNELREVDGTAKKNGGTLYYMAPEHLNDVNAKPTEKSDVYSFAVVLWAIFANKEPYENAICEQQLIMCIKSGNRPDVDDITEYCPREIISLMKLCWEANPEARPTFPGIEEKFRPFYLSQLEESVEEDVKSLKKEYSNENAVVKRMQSLQLDCVAVPSSRSNSATEQPGSLHSSQGLGMGPVEESWFAPSLEHPQEENEPSLQSKLQDEANYHLYGSRMDRQTKQQPRQNVAYNREEERRRRVSHDPFAQQRPYENFQNTEGKGTAYSSAASHGNAVHQPSGLTSQPQVLYQNNGLYSSHGFGTRPLDPGTAGPRVWYRPIPSHMPSLHNIPVPETNYLGNTPTMPFSSLPPTDESIKYTIYNSTGIQIGAYNYMEIGGTSSSLLDSTNTNFKEEPAAKYQAIFDNTTSLTDKHLDPIRENLGKHWKNCARKLGFTQSQIDEIDHDYERDGLKEKVYQMLQKWVMREGIKGATVGKLAQALHQCSRIDLLSSLIYVSQN
notes: Two-hybrid construct
B5: intracellular domain of the p55 TNF receptor (receptor, UniProt P19438 235-455, looked up)
chain: RYQRWKSKLYSIVCGKSTPEKEGELEGTTTKPLAPNPSFSPTPGFTPTLGFSPVPSSTFTSSSTYTPGDCPNFAAPRREVAPPYQGADPILATALASDPIPNPLQKWEDSAHKPQSLDTDDPATLYAVVENVPPLRWKEFVRRLGLSDHEIDRLELQNGRCLREAQYSMLATWRRRTPRREATLELLGRVLRDMDLLGCLEDIEEALCGPAALPPAPSLLR
notes: domain: intracellular domain; Two-hybrid construct; also called p55-IC
B6: intracellular domain of the p75 TNF receptor (receptor, UniProt P20333 288-461, looked up)
chain: KKKPLCLQREAKVPHLPADKARGTQGPEQQHLLITAPSSSSSSLESSASALDRRAPTRNQPQAPGVEASGAGEARASTGSSDSSPGGHGTQVNVTCIVNVCSSSDHSSQCSSQASSTMGDTDSSPSESPKDEQVPFSKEECAFRSQLETPETLLGSTEEKPLPLGVPDAGMKPS
notes: domain: intracellular domain; Two-hybrid construct; also called p75-IC
B7: TRAF2 cDNA clones picked from the human B-cell library (two-hybrid prey, GAL4 activation domain fusion) (other, not shown: large carriers)
chain: MAAASVTPPGSLELLQPGFSKTLLGTKLEAKYLCSACRNVLRRPFQAQCGHRYCSFCLASILSSGPQNCAACVHEGIYEEGISILESSSAFPDNAARREVESLPAVCPSDGCTWKGTLKEYESCHEGRCPLMLTECPACKGLVRLGEKERHLEHECPERSLSCRHCRAPCCGADVKAHHEVCPKFPLTCDGCGKKKIPREKFQDHVKTCGKCRVPCRFHAIGCLETVEGEKQQEHEVQWLREHLAMLLSSVLEAKPLLGDQSHAGSELLQRCESLEKKTATFENIVCVLNREVERVAMTAEACSRQHRLDQDKIEALSSKVQQLERSIGLKDLAMADLEQKVLEMEASTYDGVFIWKISDFARKRQEAVAGRIPAIFSPAFYTSRYGYKMCLRIYLNGDGTGRGTHLSLFFVVMKGPNDALLRWPFNQKVTLMLLDQNNREHVIDAFRPDVTSSSFQRPVNDMNIASGCPLFCPVSKMEAKNSYVRDDAIFIKAIVDLTGL
B8: protein encoded by new clone number 10, partial NIK (NIK 624-947) (two-hybrid prey, GAL4 activation domain fusion) (enzyme, not shown: large carriers)
chain: PLTAQAIQEGLRKEPIHRVSAAELGGKVNRALQQVGGLKSPWRGEYKEPRHPPPNQANYHQTLHAQPRELSPRAPGPRPAEETTGRAPKLQPPLPPEPPEPNKSPPLTLSKEESGMWEPLPLSSLEPAPARNPSSPERKATVPEQELQQLEIELFLNSLSQPFSLEEQEQILSCLSIDSLSLSDDSEKNPSKASQSSRDTLSSGVHSWSSQAEARSSSWNMVLARGRPTDTPSYFNGVKVQIQSLNGEHLHIREFHRVKVGDIATGISSQIPAAAFSLVTKDGQPVRYDMEVPDSGIDLQCTLAPDGSFAWSWRVKHGQLENRP
notes: also called clone 10; NMPI
B9: construct of the C-terminal part of the TRAF2 molecule, amino acids 222 to 501 (two-hybrid bait) (other)
chain: GCLETVEGEKQQEHEVQWLREHLAMLLSSVLEAKPLLGDQSHAGSELLQRCESLEKKTATFENIVCVLNREVERVAMTAEACSRQHRLDQDKIEALSSKVQQLERSIGLKDLAMADLEQKVLEMEASTYDGVFIWKISDFARKRQEAVAGRIPAIFSPAFYTSRYGYKMCLRIYLNGDGTGRGTHLSLFFVVMKGPNDALLRWPFNQKVTLMLLDQNNREHVIDAFRPDVTSSSFQRPVNDMNIASGCPLFCPVSKMEAKNSYVRDDAIFIKAIVDLTGL
notes: Covers the TRAF-domain and additional 42 amino acids; served as bait in two hybrid tests (fusion partner not spelled out for this construct); also called TRAF2 222-501; C-terminal construct comprising the TRAF domain
B10: intracellular domain of the FAS/APO1 (CD95 receptor) (receptor, UniProt P25445 191-335, looked up)
chain: KRKEVQKTCRKHRKENQGSHESPTLNPETVAINLSDVDLSKYITTIAGVMTLSQVKGFVRKNGVNEAKIDEIKNDNVQDTAEQKVQLLRNWHQLHGKKEAYDTLIKDLKKANLCTLAEKIQTIILKDITSDSENSNFRNEIQSLV
notes: as for B1
B11: TRADD (other, UniProt Q15628 1-312, looked up)
chain: MAAGQNGHEEWVGSAYLFVESSLDKVVLSDAYAHPQQKVAVYRALQAALAESGGSPDVLQMLKIHRSDPQLIVQLRFCGRQPCGRFLRAYREGALRAALQRSLAAALAQHSVPLQLELRAGAERLDALLADEERCLSCILAQQPDRLRDEELAELEDALRNLKCGSGARGGDGEVASAPLQPPVPSLSEVKPPPPPPPAQTFLFQGQPVVNRPLSLKDQQTFARSVGLKWRKVGRSLQRGCRALRDPALDSLAYEYEREGLYEQAFQLLRRFVQAEGRRATLQRLVEALEENELTSLAEDLLGLTDPNGGLA
notes: Two-hybrid construct
B12: MORT1 (other, UniProt Q13158 1-208, looked up)
chain: MDPFLVLLHSVSSSLSSSELTELKFLCLGRVGKRKLERVQSGLDLFSMLLEQNDLEPGHTELLRELLASLRRHDLLRRVDDFEAGAAAGAAPGEEDLCAAFNVICDNVGKDWRRLARQLKVSDTKIDSIEDRYPRNLTERVRESLRIWKNTEKENATVAHLVGALRSCQMNLVADLVQEVQQARDLQNRSGAMSPMSWNSDASTSEAS
notes: Two-hybrid construct; also called FADD; MORT1/FADD
B13: construct of the N-terminal part of the TRAF2 molecule, amino-acids 1 to 221 (two-hybrid bait) (other)
chain: MAAASVTPPGSLELLQPGFSKTLLGTKLEAKYLCSACRNVLRRPFQAQCGHRYCSFCLASILSSGPQNCAACVHEGIYEEGISILESSSAFPDNAARREVESLPAVCPSDGCTWKGTLKEYESCHEGRCPLMLTECPACKGLVRLGEKERHLEHECPERSLSCRHCRAPCCGADVKAHHEVCPKFPLTCDGCGKKKIPREKFQDHVKTCGKCRVPCRFHAI
notes: Includes the Ring finger and zinc finger motifs; served as bait in two hybrid tests (fusion partner not spelled out for this construct); also called TRAF2 1-221

Legend:
[1] = target: full-length NIK (NF-kB inducing kinase) (human, UniProt Q99558 1-947); test: yeast two-hybrid (results not shown)
[2] = target: T1, human TRAF2 in pGBT9 vector in conjunction with GAL4 DNA binding domain (two-hybrid bait) (human, UniProt P04386 1-147 (Saccharomyces cerevisiae entry)); test: yeast two-hybrid with TRAF2 bait, lacZ (beta-galactosidase) colour development time
T1 construct: Cloned by PCR from the first methionine to the stop codon; a short linker from the BamHI primer between GAL4 domain and TRAF2 is not spelled out; also called hTRAF2; full length TRAF2 molecule
Protocol: Positive clones picked up in the two hybrid screen were subjected to lacZ color development test in SFY526 yeast cells, following Clontech Laboratories' manual (for details see above mentioned publications and patent applications). In brief, transformants were allowed to grow at 30° C. for 2-4 days until reaching about 2 mm in diameter, then were transferred onto Whatman filters. The filters went through a freeze/thaw treatment in order to permeabilize the cells, then soaked in a buffer (16.1 mg/ml Na_2HPO_4.7H_2O; 5.5 mg/ml NaH_2PO_4.H_2O; 0.75 mg/ml KCl; 0.75 mg/ml MgSO_4.7H_2O, pH=7) containing 0.33 mg/ml X-gal and 0.35 mM β-mercaptoethanol. Colonies were monitored for development of blue color which is an indication for induction of β-galactosidase.
The screen yielded approximately 2000 clones which were able to grow on Trp-, Leu-, His-3AT plates. DNA prepared from 165 randomly selected positive clones served for transient co-transfection of SFY526 yeast strain together with TRAF2 cloned into pGBT9 vector. Assay for β-galactosidase activity was performed on the transformed SFY526 yeast colonies as described in Materials and Methods (v). The blue color that developed was an indication for yeast colonies that contain cDNA encoding a protein or polypeptide that binds to TRAF2.

[3] = target: B8; test: yeast two-hybrid specificity test with irrelevant baits
[4] = target: B8; test: yeast two-hybrid, TRAF2 222-501 as bait
From the text: (§1) In order to narrow down the region on TRAF2 molecule which interact with clones 9, 10 and 15, two additional constructs were made. One construct comprised of the N-terminal part of the TRAF2 molecule, amino-acids 1 to 221, that included the Ring finger and the zinc finger motifs. The second construct included only the C-terminal part of the molecule, amino acids 222 to 501, covering the "TRAF-domain" and additional 42 amino acids. These two constructs were served as baits in two hybrid tests.

[5] = target: B8; test: yeast two-hybrid, TRAF2 1-221 as bait
From the text: as §1

Binder | binding result [1] | also measured
B1 | no binding | –
B2 | – | Color test [2]: 10 min
B3 | no binding | –
B4 | no binding | –
B5 | no binding | binding result [3]: no binding
B6 | no binding | binding result [3]: no binding
B7 | – | Color test [2]: 10 min
B8 | – | Color test [2]: 15 min
B9 | – | binding result [4]: binds
B10 | no binding | –
B11 | no binding | –
B12 | no binding | binding result [3]: no binding
B13 | – | binding result [5]: no binding
